Reference: US20220281976A1 (Alector, published 2022)

T1: mouse CD33 Fc fusion protein (mouse, UniProt Q63994 18-240, limits assumed)
T1 construct: also called mCD33-Fc
T1 sequence: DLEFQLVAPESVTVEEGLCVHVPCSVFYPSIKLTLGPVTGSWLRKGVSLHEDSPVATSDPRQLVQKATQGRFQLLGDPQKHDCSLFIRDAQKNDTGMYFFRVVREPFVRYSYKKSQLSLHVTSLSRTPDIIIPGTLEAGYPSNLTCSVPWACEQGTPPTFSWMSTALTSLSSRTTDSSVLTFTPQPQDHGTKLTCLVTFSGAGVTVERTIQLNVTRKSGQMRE

B1: C-90 (antibody, V domains shown)
VH: EVQLVESGGGLVQPGGSLRLSCAASGFTFSSYWMSWVRQAPGKGLEWVANINQDGSEKYYVDSVKGRFTISRDNAKNSLYLQMNSLRAEDTAVYYCAREAGAVTGYRWFDPWGQGTLVTVSS
VL: DIQMTQSPSSLSASVGDRVTITCRASQSISSYLNWYQQKPGKAPKLLIYGASSLQSGVPSRFSGSGSGTDFTLTISSLQPEDFATYYCQQQYLTPLTFGGGTKVEIK
notes: human IgG1
B2: C-91 (antibody, V domains shown)
VH: EVQLVESGGGLVQPGGSLRLSCAASGFTFSSYWMSWVRQAPGKGLEWVANIKSDGSEKYYVDSVKGRFTISRDNAKNSLYLQMNSLRAEDTAVYYCARDVGGDYSGSDLASYWGQGTLVTVSS
VL: DIQMTQSPSSLSASVGDRVTITCRASQSISSYLNWYQQKPGKAPKLLIYAASSLQSGVPSRFSGSGSGTDFTLTISSLQPEDFATYYCQQGYDPPLTFGGGTKVEIK
notes: human IgG1
B3: C-89 (antibody, V domains shown)
VH: QLQLQESGPGLVKPSETLSLTCTVSGGSISSSSYYWGWIRQPPGKGLEWIGSIYYSGSTYYNPSLKSRVTISVDTSKNQFSLKLSSVTAADTAVYYCAREGPRFDPWGQGTLVTVSS
VL: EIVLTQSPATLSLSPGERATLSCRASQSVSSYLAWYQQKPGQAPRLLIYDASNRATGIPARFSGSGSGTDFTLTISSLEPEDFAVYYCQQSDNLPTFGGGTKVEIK
notes: human IgG1
B4: C-88 (antibody, V domains shown)
VH: QLQLQESGPGLVKPSETLSLTCTVSGGSISSSSYYWGWIRQPPGKGLEWIGSIYYSGSTYYNPSLKSRVTISVDTSKNQFSLKLSSVTAADTAVYYCARLPIYYDSSGYFDYHGMDVWGQGTTVTVSS
VL: EIVLTQSPATLSLSPGERATLSCRASQSVSSYLAWYQQKPGQAPRLLIYDASNRATGIPARFSGSGSGTDFTLTISSLEPEDFAVYYCQQHANHPPTFGGGTKVEIK
notes: human IgG1

Experiments:
[1] = molecular target: T2, human CD33 Fc fusion protein (human, UniProt P20138 18-259); assay: RBC adhesion to plate-bound CD33-Fc; antibody 0.5 ug/ml;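 note: Plate-coated CD33-Fc preincubated 1 h with antibody, then red blood cells added for 1 h at room temperature, adherent cells lysed and quantified via peroxidase activity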
T2 construct: also called hCD33-Fc; human CD33/Fc chimera (R&D Systems)
Experimental: (§1) Briefly, 5 ug/ml CD33-Fc was coated overnight at RT in 96 well Immunolon plates, then washed with PBS, blocked for one hour with binding buffer (PBS containing %0.25 BSA 1 mM CaCl₂). CD33 antibodies (0.5 ug/ml or 1.0 ug/ml) or Fabs (25 ug/ml) were bound for one hour at RT with gentle rocking. After removal of unbound antibody, red blood cells were added to each well at a concentration of 3.0×10⁶ cells per ml and incubated at RT for one hour. Unbound RBCs were then carefully washed off 3× with PBS, and water was added to each well for hypotonic lysis of bound RBCs. The plate was transferred to −80° C. for 10 minutes, followed by 37° C. for 15 minutes. Bound RBCs were detected by peroxidase activity, followed by 2N sulfuric acid to stop the reaction.

[2] = molecular target: T2, human CD33 Fc fusion protein; assay: ForteBio BLI or MSD-SET, IgG, avid;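 note: Anti-CD33 IgG affinity by BLI, IgG captured on AHQ sensors with antigen in solution and a one-to-one kinetic fit, or by MSD solution equilibrium titration with quadratic fit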
[3] = molecular target: T3, human CD33 (human, UniProt P20138 18-364); assay: flow cytometry, human primary T cells;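 note: binding of anti-CD33 antibodies at 10 ug/ml to human primary T cells, 1 h on ice, detected with PE-labelled secondary antibody, read as flow cytometry MFI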
T3 construct: CD33 on human primary dendritic cells, macrophages, monocytes and T cells and on CHO cells expressing recombinant human CD33; also called Siglec-3; hCD33

[4] = molecular target: T3, human CD33; assay: cell-based or functional assay
[5] = molecular target: T3, human CD33; assay: flow cytometry, human primary dendritic cells;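 note: binding of anti-CD33 antibodies (10 ug/ml, 1 h on ice) to human primary dendritic cells, detected with a PE-labelled secondary antibody, reported as flow cytometry MFI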
[6] = molecular target: T3, human CD33; assay: flow cytometry, human primary monocytes; design: reference not given here;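 note: binding of anti-CD33 antibodies at 10 ug/ml to human primary monocytes, 1 h on ice, detected by PE-labelled secondary antibody, flow cytometry readout as mean fluorescence intensity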
[7] = molecular target: T1, mouse CD33 Fc fusion protein; assay: ForteBio BLI or MSD-SET
[8] = molecular target: T3, human CD33; assay: flow cytometry, human primary macrophages;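 note: binding of CD33 antibodies at 10 µg/ml to human primary macrophages, 1 h on ice, detected with PE-labelled secondary antibody by flow cytometry, reported as MFI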
[9] = molecular target: T2, human CD33 Fc fusion protein; assay: RBC adhesion to plate-bound CD33-Fc; antibody 1.0 ug/ml;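 note: red blood cells adhering to plate-coated CD33-Fc after 1 h antibody pretreatment, then 1 h at room temperature, bound cells read as peroxidase activity after lysis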
Experimental: as §1

[10] = molecular target: T4, human monomeric His tagged CD33 protein (human, UniProt P20138 18-259); assay: ForteBio BLI or MSD-SET, IgG, monomeric antigen;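 note: BLI: antibodies captured on AHQ sensors, 100 nM antigen association 5 min, dissociation 5 min, 1:1 fit. MSD-SET: antigen fixed at 50 pM, antibody titrated, quadratic fit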
T4 construct: also called hCD33-His
T4 sequence (P20138 18-259 limits assumed): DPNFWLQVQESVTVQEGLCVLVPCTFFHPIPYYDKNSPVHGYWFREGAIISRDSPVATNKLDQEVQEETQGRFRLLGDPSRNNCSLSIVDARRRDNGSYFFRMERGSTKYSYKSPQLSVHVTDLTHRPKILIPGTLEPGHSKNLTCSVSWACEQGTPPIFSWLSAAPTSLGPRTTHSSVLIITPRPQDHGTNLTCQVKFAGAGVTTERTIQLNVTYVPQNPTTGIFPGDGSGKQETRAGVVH
Experimental: The binding affinity of each anti-CD33 antibody was determined by measuring their KD by ForteBio or MSD-SET. […] Briefly, ForteBio affinity measurements were performed by loading IgGs on-line onto AHQ sensors. Sensors were equilibrated off-line in assay buffer for 30 min and then monitored on-line for 60 seconds for baseline establishment. Sensors with loaded IgGs were exposed to 100 nM antigen for 5 minutes, then transferred to assay buffer for 5 min for off-rate measurement. Kinetics were analyzed using the 1:1 binding model.
Solution equilibrium titrations (SET) were performed in PBS+0.1% IgG-Free BSA (PBSF) with antigen held constant at 50 pM and incubated with 3-to 5-fold serial dilutions of antibody starting at 10 nM. Antibodies (20 nM in PBS) were coated onto standard bind MSD-ECL plates overnight at 4° C. or at room temperature for 30 min. Plates were then blocked for 30 min with shaking at 700 rpm, followed by three washes with wash buffer (PBSF+0.05% Tween 20). SET samples were applied and incubated on the plates for 150s with shaking at 700 rpm followed by one wash. Antigen captured on a plate was detected with 250 ng/mL sulfotag-labeled streptavidin in PBSF by incubation on the plate for 3 min. The plates were washed three times with wash buffer and then read on the MSD Sector Imager 2400 instrument using 1× Read Buffer T with surfactant. The percent free antigen was plotted as a function of titrated antibody in Prism and fit to a quadratic equation to extract the KD. To improve throughput, liquid handling robots were used throughout MSD-SET experiments, including SET sample preparation.

T3 sequence (P20138 18-364): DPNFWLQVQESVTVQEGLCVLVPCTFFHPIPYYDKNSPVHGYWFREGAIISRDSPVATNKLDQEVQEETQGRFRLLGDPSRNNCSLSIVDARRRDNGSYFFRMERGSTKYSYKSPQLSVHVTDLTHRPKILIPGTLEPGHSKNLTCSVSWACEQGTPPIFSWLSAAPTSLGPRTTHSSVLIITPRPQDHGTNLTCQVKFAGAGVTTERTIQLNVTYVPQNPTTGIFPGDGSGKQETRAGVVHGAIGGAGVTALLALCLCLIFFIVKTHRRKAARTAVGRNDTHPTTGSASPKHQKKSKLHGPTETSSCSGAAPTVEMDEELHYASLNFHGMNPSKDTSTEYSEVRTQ
T2 sequence (P20138 18-259 limits assumed): as the sequence (P20138 18-259 limits assumed) above

| Binder | Percent RBC Binding to CD33 [1] [%] | Kd [2] [nM] | T cell MFI [3] | Percent CD33 Surface Expression, DC % CD33 [4] [%] | Percent CD33 Surface Expression, Macrophage % CD33 [4] [%] | Percent CD33 Surface Expression, Monocyte % CD33 [4] [%] | DC MFI [5] | Monocyte MFI [6] | binding result [7] | Macrophage MFI [8] | Percent RBC Binding to CD33 [9] [%] | Kd [10] [nM] |
| --- | --- | --- | --- | --- | --- | --- | --- | --- | --- | --- | --- | --- |
| B1 | 17.2 | 1.51 | 329 | 18.5 | 41.3 | 35.4 | 151 | 987 | no binding (tested: 100 nM) | 1260 | 6.8 | 5.74 |
| B2 | 17.6 | 1.2 | 38.2 | 18.8 | 38.4 | 24.3 | 150 | 893 | no binding (tested: 100 nM) | 1230 | 7 | 4.26 |
| B3 | 20.6 | 1.16 | 109 | 19.6 | 41.2 | 25.3 | 203 | 1120 | no binding (tested: 100 nM) | 1420 | 10.5 | 4.88 |
| B4 | 39.4 | 0.734 | 204 | 18.6 | 41.4 | 28.7 | 178 | 957 | no binding (tested: 100 nM) | 1200 | 10.9 | 2.7 |
